{"source": "paper PMC3919167", "molecular_target": "Bacteriophage P23-77 small major capsid protein VP16, recombinant (bacteriophage P23-77)", "assay": "SEC"}
{"substance": "Bacteriophage P23-77 small major capsid protein VP16, recombinant (natural protein)", "values": [{"measurement": "stoichiometry N", "result": 2}]}
